Reference: doi:10.1101/2022.07.12.499507 (bioRxiv, 2022)

Biological target: T1, Eaf2 (Saccharomyces cerevisiae, UniProt P53201 1-476)
T1 sequence: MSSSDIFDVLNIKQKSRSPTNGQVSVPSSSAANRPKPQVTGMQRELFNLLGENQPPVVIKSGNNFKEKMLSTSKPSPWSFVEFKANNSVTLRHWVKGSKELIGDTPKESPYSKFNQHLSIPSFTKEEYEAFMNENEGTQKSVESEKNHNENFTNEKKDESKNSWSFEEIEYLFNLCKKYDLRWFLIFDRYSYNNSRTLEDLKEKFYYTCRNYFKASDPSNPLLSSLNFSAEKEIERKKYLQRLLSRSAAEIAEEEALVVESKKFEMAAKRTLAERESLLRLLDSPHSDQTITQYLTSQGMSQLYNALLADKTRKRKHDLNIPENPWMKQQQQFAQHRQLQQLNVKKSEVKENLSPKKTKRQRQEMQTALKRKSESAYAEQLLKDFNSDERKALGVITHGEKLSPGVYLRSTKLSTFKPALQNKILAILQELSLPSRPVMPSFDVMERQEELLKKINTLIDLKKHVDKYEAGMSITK
Test: cross-linking

binding result: binds
B1: Yaf9 (natural protein)
chain: MAPTISKRIKTLSVSRPIIYGNTAKKMGSVKPPNAPAEHTHLWTIFVRGPQNEDISYFIKKVVFKLHDTYPNPVRSIEAPPFELTETGWGEFDINIKVYFVEEANEKVLNFYHRLRLHPYANPVPNSDNGNEQNTTDHNSKDAEVSSVYFDEIVFNEPNEEFFKILMSRPGNLLPSNKTDDCVYSKQLEQEEIDRIEIGIEKVDKEIDELKQKLENLVKQEAINGS
